Test results reported in US20030219853.

Columns and labels:
[1] = target: bovine serum albumin (BSA) (UniProt P02769)
[2] = system: BSA5 peptide
[3] = target: T1, β-casein (UniProt P02666)
T1 sequence: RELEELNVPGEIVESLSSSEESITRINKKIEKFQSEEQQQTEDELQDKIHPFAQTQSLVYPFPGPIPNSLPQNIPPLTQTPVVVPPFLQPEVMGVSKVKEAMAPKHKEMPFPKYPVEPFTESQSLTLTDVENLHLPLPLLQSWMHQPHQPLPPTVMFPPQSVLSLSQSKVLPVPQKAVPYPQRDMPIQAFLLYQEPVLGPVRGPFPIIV

[4] = system: histone H3 protein
[5] = target: recombinant serum albumin (UniProt P02768)
[6] = target: ovalbumin (UniProt P01012)
Sequence of ovalbumin (P01012 2-386): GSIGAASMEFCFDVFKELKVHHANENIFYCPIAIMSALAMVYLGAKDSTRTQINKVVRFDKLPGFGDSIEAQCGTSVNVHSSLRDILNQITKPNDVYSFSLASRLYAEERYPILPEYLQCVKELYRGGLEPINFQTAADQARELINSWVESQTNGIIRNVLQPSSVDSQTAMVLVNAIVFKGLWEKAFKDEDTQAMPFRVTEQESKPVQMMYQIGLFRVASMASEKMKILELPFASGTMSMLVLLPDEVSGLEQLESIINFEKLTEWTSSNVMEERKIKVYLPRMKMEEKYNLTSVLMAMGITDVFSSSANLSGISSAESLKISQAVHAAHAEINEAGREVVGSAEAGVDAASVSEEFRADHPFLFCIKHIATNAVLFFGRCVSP

Sequence of bovine serum albumin (BSA) (P02769 25-607): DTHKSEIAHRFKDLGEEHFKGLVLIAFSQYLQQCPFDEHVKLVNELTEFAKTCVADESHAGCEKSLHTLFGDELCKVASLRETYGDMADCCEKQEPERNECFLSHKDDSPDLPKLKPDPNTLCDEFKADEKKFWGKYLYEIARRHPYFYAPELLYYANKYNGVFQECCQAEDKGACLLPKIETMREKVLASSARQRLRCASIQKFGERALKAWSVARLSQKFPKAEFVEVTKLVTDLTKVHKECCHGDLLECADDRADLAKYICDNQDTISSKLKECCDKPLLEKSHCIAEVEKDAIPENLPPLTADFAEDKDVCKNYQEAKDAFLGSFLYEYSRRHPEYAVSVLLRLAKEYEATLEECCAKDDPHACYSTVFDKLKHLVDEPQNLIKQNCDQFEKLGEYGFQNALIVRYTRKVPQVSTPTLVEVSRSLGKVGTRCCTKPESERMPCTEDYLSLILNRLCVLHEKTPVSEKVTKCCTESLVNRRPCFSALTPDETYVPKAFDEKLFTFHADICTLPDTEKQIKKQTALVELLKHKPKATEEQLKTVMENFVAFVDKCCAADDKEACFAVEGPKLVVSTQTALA

B1: recombinant 6x-His-TGase fusion protein of Streptomyces mobaraensis ATCC 29032 (enzyme, UniProt P81453 77-407, looked up)
Protein-glutamine gamma-glutamyltransferase: DSDDRVTPPAEPLDRMPDPYRPSYGRAETVVNNYIRKWQQVYSHRDGRKQQMTEEQREWLSYGCVGVTWVNSGQYPTNRLAFASFDEDRFKNELKNGRPRSGETRAEFEGRVAKESFDEEKGFQRAREVASVMNRALENAHDESAYLDNLKKELANGNDALRNEDARSPFYSALRNTPSFKERNGGNHDPSRMKAVIYSKHFWSGQDRSSSADKRKYGDPDAFRPAPGTGLVDMSRDRNIPRSPTSPGEGFVNFDYGWFGAQTEADADKTVWTHGNHYHAPNGSLGAMHVYESKFRNWSEGYSDFDRGAYVITFIPKSWNTAPDKVKQGWP
modifications: N-terminal 6xHis tag
[1]
  cross-linking on SDS-PAGE, native and modified (denatured, dialyzed) protein: only the reactions containing the modified protein species of BSA, histine H3 protein, glucose oxidase, and ovalbumin were cross-linked by the purified recombinant SM TGase
[2]
  cross-linking of BSA5 peptide on SDS-PAGE: increased amount of recombinant SM TGase corresponding to an increase in cross-linked (CL) BSA5 peptide, which run as a large molecular weight polymer on the top of the separating gel
[3]
  cross-linking of a mixture of β-casein and glucose oxidase on SDS-PAGE: both protein species can be cross-linked by the purified recombinant SM TGase, as indicated by the disappearance of the two monomer bands
  cross-linking of β-casein on SDS-PAGE: the cross-linked (CL) β-casein migrated as a smear on the SDS-PAGE gel indicating a mixture of high molecular weight polymers of different length
  cross-linking of β-casein on SDS-PAGE, 0 mM DTT: in the absence of DTT (lane 1 and 2), the recombinant SM TGase had no cross-linking activity on β-casein and β-casein runs as a monomer
  cross-linking of β-casein on SDS-PAGE, about 2 mM DTT: the recombinant SM TGase was activated and β-casein run as a mixture of cross-linked polymer and monomer
  cross-linking of β-casein on SDS-PAGE, about 10 mM DTT: the catalytic cross-linking activity of SM TGase resulted in cross-linking of all detectable β-casein substrates in the reaction
[4]
  cross-linking on SDS-PAGE, native and modified (denatured, dialyzed) protein: only the reactions containing the modified protein species of BSA, histine H3 protein, glucose oxidase, and ovalbumin were cross-linked by the purified recombinant SM TGase; complete and partial cross-linking was both observed for native histine H3 protein
[5]
  cross-linking of recombinant serum albumin on SDS-PAGE: the cross-linking reaction containing recombinant serum albumin revealed a mixture of very high molecular weight polymers of different length
[6]
  cross-linking on SDS-PAGE, native and modified (denatured, dialyzed) protein: only the reactions containing the modified protein species of BSA, histine H3 protein, glucose oxidase, and ovalbumin were cross-linked by the purified recombinant SM TGase
